Values joined by “and” are separate entries in the source; they are usually repeats but may differ in a detail not shown here. Equal values may be shown once. Read-outs that look alike come from different tables or passages of the source.
How the values were obtained:
[1] = target: Pisum sativum (green pea) porphobilinogen synthase (PsPBGS) (Pisum sativum (green pea)); experiment: native gel or EMSA
[2] = target: human porphobilinogen synthase, wild type (WT HsPBGS) (human) (UniProt P13716)
[3] = target: human porphobilinogen synthase, wild type (WT HsPBGS) (human) (UniProt P13716); remark: listed apart in the source
[4] = target: human porphobilinogen synthase, wild type (WT HsPBGS) (human) (UniProt P13716); remark: listed apart in the source

stoichiometry N [1]	percent Phe12 (WT) chains in the hetero-octamers (Pool II) [2] [%]	stoichiometry N [3]	stoichiometry N [4]	Substance
8 and 6				Pisum sativum (green pea) porphobilinogen synthase (PsPBGS) (enzyme)
	70	6 and 8	6 and 8	human porphobilinogen synthase, naturally occurring variant F12L (from UniProt P13716 1-330) (enzyme)

Source: PMC3256758
